Laboratory results taken from publication PMC9159944.

Assays:
[1] = target: S. cerevisiae recombinant MCM^ybbR-LD655-Mcm6 (MCM2–MCM7 complex), loaded on origin DNA (S. cerevisiae) (UniProt P29469)
[2] = target: Chimeric S. cerevisiae MCM^(Mcm3-YDF, ybbR-LD655-Mcm6) with a humanized Mcm3 subunit, loaded on origin DNA (S. cerevisiae | human) (UniProt P29469)

Chain of UniProt P29469 (P29469 whole entry, looked up, change not shown, tested part not stated): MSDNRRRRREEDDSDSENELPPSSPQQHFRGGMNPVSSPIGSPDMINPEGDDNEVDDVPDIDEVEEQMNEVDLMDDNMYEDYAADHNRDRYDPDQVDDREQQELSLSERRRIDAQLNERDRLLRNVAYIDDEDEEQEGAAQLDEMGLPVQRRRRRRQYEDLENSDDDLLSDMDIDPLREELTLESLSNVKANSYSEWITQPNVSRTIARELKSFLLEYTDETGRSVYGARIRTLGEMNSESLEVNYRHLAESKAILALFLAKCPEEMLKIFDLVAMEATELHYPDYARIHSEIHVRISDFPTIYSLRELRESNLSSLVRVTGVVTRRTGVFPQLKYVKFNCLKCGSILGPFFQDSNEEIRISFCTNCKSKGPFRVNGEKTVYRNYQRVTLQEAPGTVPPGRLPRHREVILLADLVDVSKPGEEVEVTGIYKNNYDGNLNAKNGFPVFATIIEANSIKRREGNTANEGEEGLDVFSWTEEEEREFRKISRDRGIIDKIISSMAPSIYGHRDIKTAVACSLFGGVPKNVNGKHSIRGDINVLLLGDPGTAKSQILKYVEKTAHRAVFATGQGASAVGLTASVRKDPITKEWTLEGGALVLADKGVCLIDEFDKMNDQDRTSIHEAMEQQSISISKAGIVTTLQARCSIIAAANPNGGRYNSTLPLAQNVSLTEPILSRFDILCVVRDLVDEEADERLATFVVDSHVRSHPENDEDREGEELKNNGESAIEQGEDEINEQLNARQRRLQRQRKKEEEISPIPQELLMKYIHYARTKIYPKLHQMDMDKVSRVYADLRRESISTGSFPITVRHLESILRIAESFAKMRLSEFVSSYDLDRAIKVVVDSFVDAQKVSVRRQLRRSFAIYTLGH

fraction of cohesin pausing of the total observation time on encountering origin-bound MCM (single-molecule cohesin translocation assay on licensed DNA, 0.15 M NaCl) [1]: 6.4%
fraction of cohesin pausing of the total observation time on encountering origin-bound MCM (single-molecule cohesin translocation assay on licensed DNA, 0.15 M NaCl) [2]: 43%
Substance: Human recombinant cohesin^(STAG1, SCC1-Halo) (from UniProt Q14683 1-1233; Q9UQE7 1-1217; O60216 1-631; Q8WVM7 1-1258) (complex)
